From paper PMC4742562, “Structure and Interactions of a Dimeric Variant of sHIP, a Novel Virulence Determinant of Streptococcus pyogenes” (Frontiers in Microbiology, 2016)

Target: protein sHIP (streptococcal Histidine-rich glycoprotein Interacting Protein), sHIPwt (S. pyogenes)
Assay: AUC; sedimentation velocity, 20°C, 50000 rpm, 20 mM MES pH 5.5; c(S) distribution compared with theoretical sedimentation coefficients (HYDROPRO)

Substance: protein sHIP (streptococcal Histidine-rich glycoprotein Interacting Protein), sHIPwt (natural protein)
- stoichiometry N: 4
